This passage reports binding result and Kd results from patent EP0907730B1 (Zenyth Operations Pty Ltd, dated 2009).

The target of experiment [1] is T1, IL-4 receptor expressed by parental CTLL cells (UniProt P16382 26-810, limits assumed).
T1 construct: whole, on cells; Endogenous receptor of untransfected CTLL cells; also called IL-4 receptors expressed by CTLL cells; IL-4Rα
T1 sequence (looked up): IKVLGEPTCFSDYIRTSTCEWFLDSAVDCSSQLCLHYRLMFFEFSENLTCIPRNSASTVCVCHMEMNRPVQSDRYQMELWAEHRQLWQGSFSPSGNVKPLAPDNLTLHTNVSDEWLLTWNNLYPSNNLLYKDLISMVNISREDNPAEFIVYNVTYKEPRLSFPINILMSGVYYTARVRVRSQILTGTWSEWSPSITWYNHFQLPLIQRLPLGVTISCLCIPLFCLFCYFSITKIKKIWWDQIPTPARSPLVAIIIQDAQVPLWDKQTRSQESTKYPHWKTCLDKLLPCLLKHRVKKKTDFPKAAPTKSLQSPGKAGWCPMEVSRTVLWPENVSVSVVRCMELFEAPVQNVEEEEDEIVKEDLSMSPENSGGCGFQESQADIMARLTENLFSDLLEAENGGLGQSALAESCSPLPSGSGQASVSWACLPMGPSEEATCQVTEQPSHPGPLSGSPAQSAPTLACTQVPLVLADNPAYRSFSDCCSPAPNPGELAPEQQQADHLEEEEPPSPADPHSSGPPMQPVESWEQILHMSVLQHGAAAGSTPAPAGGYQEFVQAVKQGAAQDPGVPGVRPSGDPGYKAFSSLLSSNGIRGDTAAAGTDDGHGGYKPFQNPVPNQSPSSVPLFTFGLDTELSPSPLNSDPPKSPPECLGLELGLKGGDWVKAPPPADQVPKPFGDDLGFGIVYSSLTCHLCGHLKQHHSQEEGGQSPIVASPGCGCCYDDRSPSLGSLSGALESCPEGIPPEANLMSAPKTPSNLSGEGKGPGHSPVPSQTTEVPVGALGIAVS
In words: 125I-IL-13 saturation binding on parental CTLL cells.

The target in experiment [2] is T1, IL-4 receptor expressed by parental …. As to the kind of experiment: 125I-IL-4 saturation binding (Scatchard) on parental CTLL cells.

B1: IL-13 (obtained commercially, R & D Systems) (ligand, UniProt P20109 19-131, looked up)
chain: APGPVPRSVSLPLTLKELIEELSNITQDQTPLCNGSMVWSVDLAAGGFCVALDSLTNISNCNAIYRTQRILHGLCNRKAPTTVSSLPDTKIEVAHFITKLLSYTKQLFRHGPF
modifications: radioiodinated (125I, iodine monochloride method) where used as tracer
notes: also called interleukin-13
Take B1: the binding result in experiment [1] was “no binding”.

B2: IL-4 (obtained commercially, R & D Systems) (ligand, UniProt P07750 23-140, looked up)
chain: HGCDKNHLREIIGILNEVTGEGTPCTEMDVPNVLTATKNTTESELVCRASKVLRIFYLKHGKTPCLKKNSSVLMELQRLFRAFRCLDSSISCTMNESKSTSLKDFLESLKSIMQMDYS
modifications: radiolabelled with di-iodo-Bolton-Hunter reagent (125I) where used as tracer
notes: also called interleukin-4
In general, Kd refers to a measure of binding affinity in units of concentration. For B2, the Kd in experiment [2] was about 0.66 nM.
